Test results reported in US20080280827A1.

Legend:
[1] = target: recombinant human LAP (R & D) (UniProt P01137)
[2] = target: plasmin/plasma kallikrein; test: cell-based or functional assay

Sequence of recombinant human LAP (R & D) (P01137 whole entry, looked up): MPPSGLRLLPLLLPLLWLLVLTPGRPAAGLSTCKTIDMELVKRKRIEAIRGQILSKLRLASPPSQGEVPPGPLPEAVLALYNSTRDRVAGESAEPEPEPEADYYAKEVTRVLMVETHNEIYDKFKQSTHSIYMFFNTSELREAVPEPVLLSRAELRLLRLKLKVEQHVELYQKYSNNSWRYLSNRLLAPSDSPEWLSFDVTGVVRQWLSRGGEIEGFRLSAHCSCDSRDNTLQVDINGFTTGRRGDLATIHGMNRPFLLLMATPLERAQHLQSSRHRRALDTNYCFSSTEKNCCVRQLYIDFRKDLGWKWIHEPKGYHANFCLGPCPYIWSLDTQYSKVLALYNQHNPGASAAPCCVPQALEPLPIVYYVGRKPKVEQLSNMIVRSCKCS

| inhibition of generation of active TGF-β in conditioned medium of rat hepatic stellate cells (ELISA, peptide 0.5 mM) [2] | Molecule | further results |
| --- | --- | --- |
| – | plasma kallikrein (SIGMA) | LAP cleavage reaction (western blot: LAP 41 kDa, LAP degradation product 38 kDa) [1]: attenuation of LAP band found in panel A, and generation of LAP degradation product found in panel B |
| – | TGVVRQWLSRG [T200 peptide (Thr-Gly-Val-Val-Arg-Gln-Trp-Leu-Ser-Arg-Gly)] | amount of active TGF-β generated into the conditioned medium, relative to control [2]: 74 % of control |
| 55% | QILSKLRLASP [QP peptide (Gln-Ile-Leu-Ser-Lys-Leu-Arg-Leu-Ala-Ser-Pro)] | – |
| 90% | QILSQQQQASP [QPQ peptide] | – |
